According to paper PMC5024299:

System: Pho4 (Saccharomyces cerevisiae)
Experiment: SELMAP (microfluidic SELEX-seq)
Settings: last round; On-chip SELMAP: 71-bp dsDNA library (20 ul, 50 uM) flowed 20 min over immobilised TF, MITOMI trapping, DNase 200 U/mL, PBS wash; binding buffer, pH and …

Substance: Pho4 consensus 6-mer CACGTG in 12-mer library
- binding signal (frequency ratio score): 220
